According to patent US20240270866A1 (Alector, published 2024):

T1: Mouse SIRPA D1 Fc (mouse, UniProt P97797 32-150, limits assumed)
T1 sequence: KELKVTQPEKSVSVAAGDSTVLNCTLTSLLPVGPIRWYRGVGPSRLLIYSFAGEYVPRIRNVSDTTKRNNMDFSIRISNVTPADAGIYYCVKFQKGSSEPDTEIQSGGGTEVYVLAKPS

T2: mouse SIRPA overexpressed on CHO cells (mouse, UniProt P97797 32-513)
T2 construct: also called CHO-muSIRPA
T2 sequence: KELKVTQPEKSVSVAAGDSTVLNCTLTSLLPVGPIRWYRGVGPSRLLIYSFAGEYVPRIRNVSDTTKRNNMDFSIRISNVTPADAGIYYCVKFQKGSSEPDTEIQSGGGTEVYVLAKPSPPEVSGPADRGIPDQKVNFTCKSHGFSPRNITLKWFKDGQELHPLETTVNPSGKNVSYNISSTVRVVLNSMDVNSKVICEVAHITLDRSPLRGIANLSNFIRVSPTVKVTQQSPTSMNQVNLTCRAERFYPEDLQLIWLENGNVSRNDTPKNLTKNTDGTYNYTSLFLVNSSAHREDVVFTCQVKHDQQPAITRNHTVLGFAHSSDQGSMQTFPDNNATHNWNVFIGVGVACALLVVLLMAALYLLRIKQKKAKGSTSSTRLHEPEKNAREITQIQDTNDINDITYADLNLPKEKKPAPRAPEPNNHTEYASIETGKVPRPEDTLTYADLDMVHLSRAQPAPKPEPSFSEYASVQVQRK

B1: SA-40 (antibody, V domains shown)
VH: QVQLVQSGAEVKKPGASVKVSCKASGYTFTSYYMHWVRQAPGQGLEWMGIINPSGGSTTYAQKFQGRVTMTRDTSTSTVYMELSSLRSEDTAVYYCAREGLASTGVSDYYYMDVWGKGTTVTVSS
VL: EIVLTQSPGTLSLSPGERATLSCRASQSVSSSYLAWYQQKPGQAPRLLIYGASSRATGIPDRFSGSGSGTDFTLTISRLEPEDFAVYYCQQLAHSPFTFGGGTKVEIK
notes: IgG
B2: SA-41 (antibody, V domains shown)
VH: QVQLQESGPGLVKPSETLSLTCTVSGGSISSYYWSWIRQPPGKGLEWIGSIYYSGSTNYNPSLKSRVTISVDTSKNQFSLKLSSVTAADTAVYYCAREGVAARGYYYGMDVWGQGTTVTVSS
VL: EIVMTQSPATLSVSPGERATLSCRASQSVSSSLAWYQQKPGQAPRLLIYGASTRATGIPARFSGSGSGTEFTLTISSLQSEDFAVYYCQQYITYPITFGGGTKVEIK
notes: IgG
B3: SA-42 (antibody, V domains shown)
VH: QVQLQESGPGLVKPSETLSLTCTVSGGSISSYYWSWIRQPPGKGLEWIGSIYYSGSTNYNPSLKSRVTISVDTSKNQFSLKLSSVTAADTAVYYCAREGVAARGYYYGMDVWGQGTTVTVSS
VL: EIVMTQSPATLSVSPGERATLSCRASQSVSSNLAWYQQKPGQAPRLLIFGASTRATGIPARFSGSGSGTEFTLTISSLQSEDFAVYYCQQYNAYPITFGGGTKVEIK
notes: IgG
B4: SA-45 (antibody, V domains shown)
VH: QVQLVQSGAEVKKPGASVKVSCKASGYTFTSYGISWVRQAPGQGLEWMGWISAYNGNTNYAQKLQGRVTMTTDTSTSTAYMELRSLRSDDTAVYYCARESGGTGAYGMDVWGQGTTVTVSS
VL: DIQMTQSPSSLSASVGDRVTITCRASQSVSSSYLAWYQQKPGQAPRLLIYGASSRATGIPDRFSGSGSGTDFTLTISRLEPEDFAVYYCQQYYDSITFGGGTKVEIK
notes: IgG
B5: SA-48 (antibody, V domains shown)
VH: QVQLVESGGGVVQPGRSLRLSCAASGFTFSSYGMHWVRQAPGKGLEWVAVISYDGSNKYYADSVKGRFTISRDNSKNTLYLQMNSLRAEDTAVYYCARGAPIETLGVYYYGMDVWGQGTTVTVSS
VL: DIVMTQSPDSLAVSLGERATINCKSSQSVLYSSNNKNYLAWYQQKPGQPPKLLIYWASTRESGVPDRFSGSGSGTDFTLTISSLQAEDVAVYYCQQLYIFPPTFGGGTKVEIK
notes: IgG
B6: SA-44 (antibody, V domains shown)
VH: EVQLVESGGGLVQPGGSLRLSCAASGFTFSSYSMNWVRQAPGKGLEWVSYISSSSSTIYYADSVKGRFTISRDNAKNSLYLQMNSLRAEDTAVYYCAREPFYSADRFDYWGQGTLVTVSS
VL: DIQMTQSPSSVSASVGDRVTITCRASQGIDSWLAWYQQKPGKAPKLLIYAASSLQSGVPSRFSGSGSGTDFTLTISSLQPEDFATYYCQQGVSLPYTFGGGTKVEIK
notes: IgG

Legend:
[1] = target: T3, human SIRPA overexpressed on CHO cells (human, UniProt P78324 31-504); assay: flow, CHO-huSIRPA;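 also: Anti-SIRPA antibodies applied at 1 µg/mL for 1 h on ice, binding read by flow cytometry using a PE-labelled secondary antibody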
T3 construct: also called CHO-huSIRPA
Description: Initial characterization of anti-SIRPA antibodies of the present disclosure involved determining their ability to bind cell lines overexpressing human or mouse SIRPA. Cells were harvested, plated at 10⁶/ml in a 96 well plate, washed, and incubated in 100 ul PBS containing 1 ug/ml Mab for 1 hour in ice. Cells were then washed twice and incubated in 100 ul PBS containing 5 ug/ml PE-conjugated secondary antibody for 30 minutes in ice. Cells were washed twice in cold PBS and acquired on a BD FACS Canto. Data analysis and calculation of mean fluorescence intensity (MFI) values or % positive cells was performed with FlowJo® (TreeStar) software version 10.0.7.

Human SIRPb D1 Fc = Human SIRPb D1 Fc (human, UniProt O00241 30-148, limits assumed); assay: ForteBio IgG avid;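 also: antibody IgG captured on AHQ biosensors, then 100 nM Fc-fused SIRP antigen applied for 3 min, followed by 3 min buffer dissociation, kinetics fitted to a 1:1 model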
Mouse SIRPA D1 Fc = target: T1, Mouse SIRPA D1 Fc; assay: ForteBio IgG avid;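 also: antibody IgG captured on AHQ biosensors, then 100 nM Fc-fused SIRP antigen applied for 3 min, followed by 3 min buffer dissociation, kinetics fitted to a 1:1 model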
[2] = target: T2, mouse SIRPA overexpressed on CHO cells; assay: flow, CHO-muSIRPA;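 as to relative MFI: antibody binding measured by flow cytometry: cells stained with 1 ug/ml test antibody for 1 h on ice, detected with PE-labelled secondary antibody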
[3] = target: T2, mouse SIRPA overexpressed on CHO cells; assay: flow, CHO-muSIRPA; remark: listed apart in the source;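 as to relative MFI: antibody binding measured by flow cytometry: cells stained with 1 ug/ml test antibody for 1 h on ice, detected with PE-labelled secondary antibody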

Sequence of Human SIRPb D1 Fc (O00241 30-148 limits assumed): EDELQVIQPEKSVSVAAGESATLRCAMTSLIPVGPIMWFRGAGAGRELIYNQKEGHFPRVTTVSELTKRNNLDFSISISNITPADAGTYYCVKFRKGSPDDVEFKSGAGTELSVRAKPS

| Binder | relative MFI [1] [fold over background] | binding result (Human SIRPb D1 Fc) | binding result (Mouse SIRPA D1 Fc) | relative MFI [2] [fold over background] | binding result [3] |
| --- | --- | --- | --- | --- | --- |
| B1 | 0.542 | no binding (tested: 100 nM) | no binding (tested: 100 nM) | 0.446 | no binding (tested: 1 ug/ml) |
| B2 | 0.989 | no binding (tested: 100 nM) | no binding (tested: 100 nM) | 0.47 | no binding (tested: 1 ug/ml) |
| B3 | 1.29 | no binding (tested: 100 nM) | no binding (tested: 100 nM) | 0.443 | no binding (tested: 1 ug/ml) |
| B4 | 14.1 | no binding (tested: 100 nM) | no binding (tested: 100 nM) | 0.512 | no binding (tested: 1 ug/ml) |
| B5 | 3.27 | no binding (tested: 100 nM) | no binding (tested: 100 nM) | 0.545 | no binding (tested: 1 ug/ml) |
| B6 | 1.2 | no binding (tested: 100 nM) | no binding (tested: 100 nM) | 0.56 | no binding (tested: 1 ug/ml) |
